Reference: patent publication US20240158457A1 (published 2024)
Like-named read-outs stand apart in the source and are kept apart here. Where no end group is shown, it is not given here.

Experiments:
[1] = molecular target: T1, IL-18Rα-Fc (CD218a protein, Fc tag; ECD 19-329; ACROBiosystems, Inc, Cat. No. IL1-H5259) (UniProt Q13478 19-329); experiment: competition ELISA; tracer 7C06(bn1713)/NA-HRP 75 nM
T1 chain: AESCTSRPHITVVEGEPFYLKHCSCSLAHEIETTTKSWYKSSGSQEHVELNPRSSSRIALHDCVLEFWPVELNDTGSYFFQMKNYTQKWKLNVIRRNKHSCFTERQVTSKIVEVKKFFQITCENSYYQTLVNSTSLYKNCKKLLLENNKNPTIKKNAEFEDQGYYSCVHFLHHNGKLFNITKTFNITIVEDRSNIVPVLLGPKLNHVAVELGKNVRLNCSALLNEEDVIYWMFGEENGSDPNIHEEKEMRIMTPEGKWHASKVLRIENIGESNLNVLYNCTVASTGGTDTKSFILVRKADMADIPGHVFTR

[2] = molecular target: T1, IL-18Rα-Fc (CD218a protein, Fc tag; ECD …); experiment: ELISA
[3] = molecular target: T1, IL-18Rα-Fc (CD218a protein, Fc tag; ECD …); experiment: ELISA
[4] = molecular target: T1, IL-18Rα-Fc (CD218a protein, Fc tag; ECD …); experiment: competition ELISA

GGFFECFYSPGHEWCIPSGG [7C06]
IC50 [1]: 350 nM

GGELCWRPFSFVDCEEGG-biotin (cysteine pairing not given here) [biotinylated alpha synthetic F1a Consensus Construct]
EC50 [2]: 0.11 nM

GGICWVPFHYLDELMCTGG-biotin (cysteine pairing not given here) [biotinylated 4D07]
EC50 [3]: 0.16 nM

GGFFECFYSPGHEWCIPSGG-biotin (cysteine pairing not given here) [biotinylated 7C06]
EC50 [3]: 0.26 nM

GGREDMECFWSPGQVWCIPSYLGG [10D09]
IC50 [4]: 11 nM
